Here are results for five molecules from patent US20200255860, “A STRONG INSULATOR AND USES […] IN GENE DELIVERY” (CHILDREN'S HOSPITAL MEDICAL CENTER, published 2020).

Conditions in all cases: tags: full-length, Abnova; label: IRDye700 5' both strands
The target in data set [1] is T1, CTCF (Homo sapiens, UniProt P49711 P49711:1-727).
T1 sequence: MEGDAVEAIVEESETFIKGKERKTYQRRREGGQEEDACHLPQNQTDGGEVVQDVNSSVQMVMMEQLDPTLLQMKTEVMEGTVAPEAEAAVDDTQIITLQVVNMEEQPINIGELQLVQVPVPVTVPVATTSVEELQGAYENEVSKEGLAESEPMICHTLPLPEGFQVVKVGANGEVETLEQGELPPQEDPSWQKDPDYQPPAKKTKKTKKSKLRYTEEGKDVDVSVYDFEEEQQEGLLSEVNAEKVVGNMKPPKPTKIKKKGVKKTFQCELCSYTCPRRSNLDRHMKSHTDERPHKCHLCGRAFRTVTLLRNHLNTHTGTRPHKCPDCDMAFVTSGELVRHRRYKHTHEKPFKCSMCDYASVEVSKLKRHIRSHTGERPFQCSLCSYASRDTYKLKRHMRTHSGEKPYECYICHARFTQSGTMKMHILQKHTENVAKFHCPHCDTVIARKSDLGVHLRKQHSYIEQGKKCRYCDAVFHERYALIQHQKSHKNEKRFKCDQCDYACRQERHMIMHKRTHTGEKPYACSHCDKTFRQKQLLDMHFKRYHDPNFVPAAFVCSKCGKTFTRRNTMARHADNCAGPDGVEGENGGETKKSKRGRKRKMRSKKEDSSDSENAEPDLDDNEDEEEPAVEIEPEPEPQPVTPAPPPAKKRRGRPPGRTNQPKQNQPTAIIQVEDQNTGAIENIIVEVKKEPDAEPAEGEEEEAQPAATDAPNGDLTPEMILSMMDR
Kind of data set: EMSA; no LV probe bound.

The target in data set [2] is T1, CTCF. As to the kind of experiment: EMSA; 20 mM HEPES pH 7.5, 50 mM KCl, 5 mM MgCl2, 3.3 uM ZnSO4, poly(dI:dC), room temp; competed by unlabeled H19.
Data set [3] concerns the target T1, CTCF. Kind of data set: EMSA; region 4 mutated, no effect.

B1: LV2 probe (dsDNA)
DNA 1: GATACCTAAAGGATCAACAGCTCCTGGGGATTTGGGGTTGCTCTGGAAAACTCATTTGCACCACTGCTGTGCCTTGGAATGCT
DNA 2: AGCATTCCAAGGCACAGCAGTGGTGCAAATGAGTTTTCCAGAGCAACCCCAAATCCCCAGGAGCTGTTGATCCTTTAGGTATC
As for B1, the binding result in the data set with CTCF [1] is on record as “no binding”.

B2: LV1 probe (dsDNA)
DNA 1: ACAAGATAGAGGAAGAGCAAAACAAAAGTAAGACCACCGCACAGCAAGCGGCCGCTGATCTTCAGACCTGGAGGAGGAGATATGAGGGA
DNA 2: TCCCTCATATCTCCTCCTCCAGGTCTGAAGATCAGCGGCCGCTTGCTGTGCGGTGGTCTTACTTTTGTTTTGCTCTTCCTCTATCTTGT
For B2, the binding result with CTCF [1] is reported as “no binding”.

B3: LV3 probe (dsDNA)
DNA 1: GTCGGGGAAGCTGACGTCCTTTCGAATTCGATATCAAGCTGTACCTTTAAGACCAATGACTTACAAGGCAGCTGTAGATC
DNA 2: GATCTACAGCTGCCTTGTAAGTCATTGGTCTTAAAGGTACAGCTTGATATCGAATTCGAAAGGACGTCAGCTTCCCCGAC
Turning to B3, in the data set with CTCF [1], the binding result is listed as “no binding”.

B4: FV2 probe (dsDNA)
DNA 1: AGTAAAAGGATTTGTATATTAGCCTTGCTAAGGGAGACATCTAGTGATATAAGTGTGAACTACACTTATCTTAAATGATG
DNA 2: CATCATTTAAGATAAGTGTAGTTCACACTTATATCACTAGATGTCTCCCTTAGCAAGGCTAATATACAAATCCTTTTACT
For the molecule B4, the binding result with CTCF [2] is reported as “binds”.

B5: FV2 mutant 4 (dsDNA)
DNA 1: AGTAAAAGGATTTGTATAGGCTTTATATCAAGGGAGACATCTAGTGATATAAGTGTGAACTACACTTATCTTAAATGATG
DNA 2: CATCATTTAAGATAAGTGTAGTTCACACTTATATCACTAGATGTCTCCCTTGATATAAAGCCTATACAAATCCTTTTACT
For B5, in the data set with CTCF [3], the binding result was “binds”.
